Results reported in patent US20190167756A1 (CITY OF HOPE, published 2019).

Target: T1, CFP-AR-YFP (full length AR with cyan fluorescent protein and yellow fluorescent protein fused to either end) (UniProt P10275 1-920)
T1 construct: Reporter stably expressed in GT1-7 CARY cells; GT1-7 CARY lysates may also contain endogenous mouse AR; also called CARY; C-AR-Y; not shown: cyan fluorescent protein (CFP); yellow fluorescent protein (YFP)
T1 sequence (looked up): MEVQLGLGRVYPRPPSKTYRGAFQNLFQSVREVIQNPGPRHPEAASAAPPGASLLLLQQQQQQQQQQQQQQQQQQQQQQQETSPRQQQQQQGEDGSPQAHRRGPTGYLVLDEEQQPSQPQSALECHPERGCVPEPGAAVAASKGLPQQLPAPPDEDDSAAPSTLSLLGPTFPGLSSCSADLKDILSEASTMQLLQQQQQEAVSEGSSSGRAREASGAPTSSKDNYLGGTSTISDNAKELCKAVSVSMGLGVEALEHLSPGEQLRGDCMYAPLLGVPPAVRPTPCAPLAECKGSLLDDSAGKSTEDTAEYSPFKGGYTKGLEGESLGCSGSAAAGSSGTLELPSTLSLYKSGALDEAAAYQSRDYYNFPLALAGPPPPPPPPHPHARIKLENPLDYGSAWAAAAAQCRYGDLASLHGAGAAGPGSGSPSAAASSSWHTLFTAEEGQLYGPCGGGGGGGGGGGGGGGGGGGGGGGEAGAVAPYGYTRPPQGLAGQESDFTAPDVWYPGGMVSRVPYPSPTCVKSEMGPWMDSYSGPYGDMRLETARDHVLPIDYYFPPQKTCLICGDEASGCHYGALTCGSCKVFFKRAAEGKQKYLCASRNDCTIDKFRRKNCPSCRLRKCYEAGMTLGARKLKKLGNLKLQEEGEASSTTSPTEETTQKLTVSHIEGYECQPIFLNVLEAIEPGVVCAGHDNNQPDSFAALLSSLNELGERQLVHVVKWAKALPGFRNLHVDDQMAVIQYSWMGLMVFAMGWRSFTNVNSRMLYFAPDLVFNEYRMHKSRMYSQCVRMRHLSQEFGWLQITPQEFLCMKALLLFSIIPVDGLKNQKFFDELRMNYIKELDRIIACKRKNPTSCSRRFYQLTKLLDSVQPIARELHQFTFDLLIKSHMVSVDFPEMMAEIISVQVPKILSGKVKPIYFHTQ
Assay: co-immunoprecipitation from GT1-7 CARY cell lysates, Western blot

B1: FOXM1 (other, mouse, UniProt O08696 1-760, looked up)
chain: MRTSPRRPLILKRRRLPLPVQNAPSETSEEEAKRSPAQPEPAPAQASQEVAESSSCKFPAGIKIINHPTTPNTQVVAIPSNADIQSIITALTAKGKESGTSGPNRFILISSGGPSSHPSQPQAHSSRDSKRAEVITETLGPKPAAKGVPVPKPPGAPPRQRQESYAGGEAAGCTLDNSLTNIQWLGKMSSDGLGPCSVKQELEEKENCHLEQNRVKVEEPSGVSTSWQDSVSERPPYSYMAMIQFAINSTERKRMTLKDIYTWIEDHFPYFKHIAKPGWKNSIRHNLSLHDMFVRETSANGKVSFWTIHPSANRHLTLDQVFKPLEPGSPQSPEHLESQQKRPNPELHRNVTIKTEIPLGARRKMKPLLPRVSSYLEPIQFPVNQSLVLQPSVKVPFRLAASLMSSELARHSKRVRIAPKVLLSSEGIAPLPATEPPKEEKPLLGGEGLLPLLPIQSIKEEEMQPEEDIAHLERPIKVESPPLEEWPSPCASLKEELSNSWEDSSCSPTPKPKKSYCGLKSPTRCVSEMLVTKRREKREVSRSRRKQHLQPPCLDEPDLFFPEDSSTFRPAVELLAESSEPAPHLSCPQEEGGPFKTPIKETLPVSSTPSKSVLSRDPESWRLTPPAKVGGLDFSPVRTPQGAFGLLPDSLGLMELNTTPLKSGPLFDSPRELLNSEPFDLASDPFGSPPPPHVEGPKPGSPELQIPSLSANRSLTEGLVLDTMNDSLSKILLDISFPGLEEDPLGPDNINWSQFIPELR
notes: also called Forkhead Box Protein M1
binding result: no binding
